Test [1] addresses T1, PD1 glycosylated at Asn58 (human PD1-ECD) (human, UniProt Q15116 25-170, N-glycosylated at Asn58 (position on SEQ ID NO: 70)).
T1 construct: also called glycosylated PD-1; glycosylated recombinant PD1
The experiment in a line: SPR (Biacore T200, 25 °C), antibody captured by anti-human IgG, PD1-ECD as analyte, 1:1 Langmuir fit; PD1 glycosylated at Asn58. An excerpt: (§1) A surface plasmon resonance (SPR) based assay has been used to determine the kinetic parameters of the binding between […]. Therefore, an anti-human IgG was immobilized by amine coupling to the surface of a (Biacore) CM5 sensor chip. The samples were then captured and hu PD1-ECD was bound to them. The sensor chip surface was regenerated after each analysis cycle. The equilibrium constant and kinetic rate constants were finally gained by fitting the data to a 1:1 langmuir interaction model.
(§2) The samples were injected for 20 seconds with a concentration of 10 nM and bound to the second flow cell.
(§3) Finally the double referenced data was fitted to a 1:1 langmuir interaction model with the Biacore T200 Evaluation Software.

Test [2] addresses T2, PD1 aglycosylated at Asn58 (human PD1-ECD) (human, UniProt Q15116 25-170, not glycosylated at Asn58 (position on SEQ ID NO: 70)).
T2 construct: also called aglycosylated PD-1; non-glycosylated recombinant human PD1
Description: SPR (Biacore T200, 25 °C), antibody captured by anti-human IgG, PD1-ECD as analyte, 1:1 Langmuir fit; PD1 aglycosylated at Asn58.
Description: as §1, §2, §3
(In general: SPR reads the build-up and loss of mass on a sensor chip optically.)

Test [3] deals with T1, PD1 glycosylated at Asn58 (human …). Description: SPR (Biacore T200, 25 °C), antibody captured by anti-human IgG, PD1-ECD as analyte, 1:1 Langmuir fit.
Description: as §1, §2, §3

Test [4] concerns the target T2, PD1 aglycosylated at Asn58 (human …). The test is described as above.
Description: as §1, §2, §3

T1 sequence (Q15116 25-170 limits assumed): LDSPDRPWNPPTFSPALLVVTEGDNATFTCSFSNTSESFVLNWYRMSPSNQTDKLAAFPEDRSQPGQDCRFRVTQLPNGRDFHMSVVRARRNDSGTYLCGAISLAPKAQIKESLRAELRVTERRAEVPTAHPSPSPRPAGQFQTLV
T2 sequence (Q15116 25-170 limits assumed): as above

B1: PD1-0103-0312 (antibody, V domains shown)
VH: EVQLLESGGGLVQPGGSLRLSCAASGFSFSSYTMSWVRQAPGKGLEWVATISGGGRDIYYPDSVKGRFTISRDNSKNTLYLQMNSLRAEDTAVYYCVLLTGRVYFALDSWGQGTLVTVSS
VL: DIVMTQSPDSLAVSLGERATINCKASESVDTSDNSFIHWYQQKPGQSPKLLIYRSSTLESGVPDRFSGSGSGTDFTLTISSLQAEDVAVYYCQQNYDVPWTFGQGTKVEIK
The Kd is the constant that tells how readily two partners part at equilibrium. Broadly, the koff is the rate constant with which the complex falls apart. In general, kon refers to the second-order rate constant of association. On to B1, for which the Kd in test [1] came to 0.0961 nM; in test [2] it was 80.2 nM. For the same molecule, the koff was determined as 7.46e-05 s⁻¹ in test [3] and 0.027 s⁻¹ in test [4]. Also, the kon in test [3] amounted to 777000 M⁻¹ s⁻¹; in test [4], 336000 M⁻¹ s⁻¹.

The values are drawn from patent US20170247454A1 (Hoffmann-La Roche, published 2017).
